Here are results for six molecules from US20210070876A1.

Assay [1] addresses T1, His-tagged human CD73 ECD (human) (UniProt P21589).
T1 sequence: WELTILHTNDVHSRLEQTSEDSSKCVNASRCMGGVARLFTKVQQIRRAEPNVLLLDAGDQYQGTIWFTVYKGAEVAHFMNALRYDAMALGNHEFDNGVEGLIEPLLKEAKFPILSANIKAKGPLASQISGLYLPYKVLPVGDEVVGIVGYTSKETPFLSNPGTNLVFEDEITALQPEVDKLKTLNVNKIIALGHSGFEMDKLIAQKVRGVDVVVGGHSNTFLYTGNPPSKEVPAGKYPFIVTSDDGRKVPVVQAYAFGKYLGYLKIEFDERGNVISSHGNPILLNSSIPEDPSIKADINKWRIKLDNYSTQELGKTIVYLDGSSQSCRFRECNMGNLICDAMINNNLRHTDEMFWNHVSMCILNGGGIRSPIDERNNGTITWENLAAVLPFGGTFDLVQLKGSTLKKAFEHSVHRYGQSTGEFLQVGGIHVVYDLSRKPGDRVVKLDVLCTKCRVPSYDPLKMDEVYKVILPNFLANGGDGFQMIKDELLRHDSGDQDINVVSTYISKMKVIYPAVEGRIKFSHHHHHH
The assay is described as follows: SEC-MALS, mAb:CD73 1:1. For orientation: SEC sorts molecules by how far they enter the pores of the column.

The target of assay [2] is human CD73 expressed on cells (human) (UniProt P21589). The assay is described as follows: cell-based or functional assay. As to conditions: scale: % viable cells compared to untreated cells.
The target of assay [3] is T1, His-tagged human CD73 ECD (human). The experiment in a line: SEC-MALS, mAb:CD73 0.1:1.
Assay [4] has the same target. The assay is described as follows: SEC-MALS, mAb:CD73 0.5:1.
Assay [5] addresses His-tagged cynomolgus CD73 ECD (cynomolgus monkey (Macaca fascicularis)). The assay is described as follows: SPR, mAb captured, His-tagged CD73 ECD injected.
Assay [6] addresses T1, His-tagged human CD73 ECD (human). The assay is described as follows: SPR, mAb captured, His-tagged CD73 ECD injected. In general terms: Surface plasmon resonance follows binding to a sensor surface in real time, without labels.
The target in assay [7] is cynomolgus CD73 ECD fused C-terminally to human IgG1 Fc (cynomolgus monkey (Macaca fascicularis); human). The experiment in a line: SPR, Fc-tagged CD73 ECD captured, Fab injected.
Assay [8] deals with T2, human CD73 ECD fused C-terminally to human IgG1 Fc (human) (UniProt P21589).
T2 sequence: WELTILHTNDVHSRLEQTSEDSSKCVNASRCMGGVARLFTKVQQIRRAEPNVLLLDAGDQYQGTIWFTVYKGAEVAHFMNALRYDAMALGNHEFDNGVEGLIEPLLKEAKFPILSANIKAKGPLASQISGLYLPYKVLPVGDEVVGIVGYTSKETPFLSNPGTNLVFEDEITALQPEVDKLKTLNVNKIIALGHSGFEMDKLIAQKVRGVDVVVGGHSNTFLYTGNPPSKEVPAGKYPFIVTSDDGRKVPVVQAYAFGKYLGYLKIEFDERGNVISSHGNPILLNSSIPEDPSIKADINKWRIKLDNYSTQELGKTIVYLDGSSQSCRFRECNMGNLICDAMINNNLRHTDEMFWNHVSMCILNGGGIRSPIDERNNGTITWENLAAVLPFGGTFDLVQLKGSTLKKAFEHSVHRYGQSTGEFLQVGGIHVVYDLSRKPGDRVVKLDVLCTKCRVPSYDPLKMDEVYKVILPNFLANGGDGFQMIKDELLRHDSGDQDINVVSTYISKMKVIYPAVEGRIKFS
The assay is described as follows: SPR, Fc-tagged CD73 ECD captured, Fab injected.

B1: oleclumab analogue (MEDI9447, Medimmune) (antibody, INN chains, looked up, V domains shown)
VH: EVQLLESGGGLVQPGGSLRLSCAASGFTFSSYAYSWVRQAPGKGLEWVSAISGSGGRTYYADSVKGRFTISRDNSKNTLYLQMNSLRAEDTAVYYCARLGYGRVDEWGRGTLVTVSS
VL: QSVLTQPPSASGTPGQRVTISCSGSLSNIGRNPVNWYQQLPGTAPKLLIYLDNLRLSGVPDRFSGSKSGTSASLAISGLQSEDEADYYCATWDDSHPGWTFGGGTKLTVL
modifications: IgG1-TM
For orientation: Kd means a measure of binding affinity in units of concentration. As a reminder, the koff is a measure of how fast the partners let go of each other. Usually kon stands for the rate constant with which the complex forms. In assay [1], B1 returned a molecular mass of complex, Peak 2 (MW, kDa) of 389 kDa; a molecular mass of complex, Peak 3 (MW, kDa) of 682 kDa; a molecular mass of complex, Peak 4 (MW, kDa) of 1040 kDa. In assay [2], the viable MDA-MB-468 cells in the presence of 300 µM AMP (WST-1) is 70 to 80. In assay [3], this molecule returned a molecular mass of complex, Peak 2 (MW, kDa) of 194 kDa; a molecular mass of complex, Peak 3 (MW, kDa) of 432 kDa; a molecular mass of complex, Peak 4 (MW, kDa) of 821 kDa. For the same molecule, in assay [4], the molecular mass of complex, Peak 2 (MW, kDa) is 870 kDa; the molecular mass of complex, Peak 3 (MW, kDa) was 559 kDa; the molecular mass of complex, Peak 4 (MW, kDa) came out at 1010 kDa. In assay [5], this molecule gave a Kd of 0.06 nM, a dissociation rate constant (koff) of 6.6e-06 s⁻¹ and an association rate constant (kon) of 140000 M⁻¹ s⁻¹. In assay [6], this molecule showed a Kd of 0.02 nM, a koff of 2.5e-06 s⁻¹ and a kon of 110000 M⁻¹ s⁻¹.

B2: oleclumab analogue Fab fragment (Fab, INN chains, looked up, V domains shown)
VH: B1 VH
VL: B1 VL
modifications: Fab
On to B2, for which, in assay [7], the Kd is 0.07 nM, the dissociation rate constant (koff) stood at 4.3e-05 s⁻¹ and the kon worked out at 580000 M⁻¹ s⁻¹. In addition, in assay [8], the Kd was 0.06 nM, the koff stood at 3.4e-05 s⁻¹ and the kon amounted to 560000 M⁻¹ s⁻¹.

B3: CPX006 analogue (Corvus) (antibody, from another filing, IgG1, V domains shown)
VH: QVQLVQSGAEVEKPGASVKVSCKASGYTFTSYWITWVRQAPGQGLEWMGDIYPGSGNTNYNEKFKTRVTITADKSTSTAYMELSSLRSEDTAVYYCAKEGGLTTEDYALDYWGQGTLVTVSS
VL: EIVLTQSPATLSLSPGERATLSCRASKNVSTSGYSYMHWYQQKPGQAPRLLIYLASNLESGIPPRFSGSGYGTDFTLTINNIESEDAAYYFCQHSRELPFTFGQGTKVEIKR
In assay [1], B3 showed a molecular mass of complex, Peak 2 (MW, kDa) of 148 kDa; a molecular mass of complex, Peak 3 (MW, kDa) of 246 kDa; a molecular mass of complex, Peak 4 (MW, kDa) of 363 kDa. In assay [3], this molecule showed a molecular mass of complex, Peak 2 (MW, kDa) of 121 kDa; a molecular mass of complex, Peak 3 (MW, kDa) of 236 kDa; a molecular mass of complex, Peak 4 (MW, kDa) of 339 kDa. In assay [4], this molecule displayed a molecular mass of complex, Peak 2 (MW, kDa) of 143 kDa; a molecular mass of complex, Peak 3 (MW, kDa) of 245 kDa; a molecular mass of complex, Peak 4 (MW, kDa) of 349 kDa. For the same molecule, in assay [5], the Kd came to 0.33 nM, the koff came out at 1.4e-05 s⁻¹ and the kon stood at 28000 M⁻¹ s⁻¹. Further, in assay [6], the Kd is 0.02 nM, the koff was found to be 2.4e-06 s⁻¹ and the kon turned out to be 170000 M⁻¹ s⁻¹.

B4: CPX006 analogue Fab fragment (Fab, from another filing, V domains shown)
VH: B3 VH
VL: B3 VL
For B4, in assay [7], the Kd is 71.6 nM, the koff was determined as 0.00048 s⁻¹ and the kon was 6700 M⁻¹ s⁻¹. For the same molecule, in assay [8], the Kd was 80.3 nM, the koff is 0.00053 s⁻¹ and the kon is 6600 M⁻¹ s⁻¹.

B5: 11E1 analogue (Innate Pharma) (antibody, from another filing, IgG1, V domains shown)
VH: EIQLQQSGPELVKPGASVKVSCKASGYAFTSYNMYWVKQSHGKSLEWIGYIDPYNGGTSYNQKFKGKATLTVDKSSSTAYMHLNSLTSEDSAVYYCARGYGNYKAWFAYWGQGTLVTVSA
VL: DAVMTQTPKFLLVSAGDRVTITCKASQSVTNDVAWYQQKPGQSPKLLIYYASNRYTGVPDRFTGSGYGTDFTFTISTVQAEDLAVYFCQQDYSSLTFGAGTKLELK
In assay [1], B5 registered a molecular mass of complex, Peak 2 (MW, kDa) of 270 kDa; a molecular mass of complex, Peak 3 (MW, kDa) of 511 kDa; a molecular mass of complex, Peak 4 (MW, kDa) of 802 kDa. In assay [3], this molecule came in with a molecular mass of complex, Peak 2 (MW, kDa) of 265 kDa; a molecular mass of complex, Peak 3 (MW, kDa) of 704 kDa; a molecular mass of complex, Peak 4 (MW, kDa) of 11800 kDa. In assay [4], the molecular mass of complex, Peak 2 (MW, kDa) amounted to 277 kDa; the molecular mass of complex, Peak 3 (MW, kDa) came to 566 kDa; the molecular mass of complex, Peak 4 (MW, kDa) came to 3370 kDa. In addition, in assay [5], the Kd came out at 0.14 nM, the koff came to 1.3e-05 s⁻¹ and the kon came out at 84000 M⁻¹ s⁻¹. In assay [6], this molecule yielded a Kd of 0.1 nM, a dissociation rate constant (koff) of 5.6e-06 s⁻¹ and a kon of 57000 M⁻¹ s⁻¹.

B6: 11E1 analogue Fab fragment (Fab, from another filing, V domains shown)
VH: B5 VH
VL: B5 VL
In assay [7], B6 yielded a Kd of 8.7 nM, a koff of 0.0028 s⁻¹ and an on-rate (kon) of 320000 M⁻¹ s⁻¹. For the same molecule, in assay [8], the Kd amounted to 9.8 nM, the koff is 0.0028 s⁻¹ and the kon worked out at 290000 M⁻¹ s⁻¹.
